T1: murine E^d MHC class II allele (Mus musculus, UniProt P01904+P01915)
T1 sequence (P01904 26-255): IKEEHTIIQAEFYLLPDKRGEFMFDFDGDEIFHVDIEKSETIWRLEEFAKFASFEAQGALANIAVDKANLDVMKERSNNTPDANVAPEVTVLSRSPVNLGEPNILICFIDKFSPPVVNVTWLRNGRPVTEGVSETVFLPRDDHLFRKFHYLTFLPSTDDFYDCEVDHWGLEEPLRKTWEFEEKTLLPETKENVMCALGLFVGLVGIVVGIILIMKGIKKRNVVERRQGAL
T1 sequence (P01915 27-264 limits assumed): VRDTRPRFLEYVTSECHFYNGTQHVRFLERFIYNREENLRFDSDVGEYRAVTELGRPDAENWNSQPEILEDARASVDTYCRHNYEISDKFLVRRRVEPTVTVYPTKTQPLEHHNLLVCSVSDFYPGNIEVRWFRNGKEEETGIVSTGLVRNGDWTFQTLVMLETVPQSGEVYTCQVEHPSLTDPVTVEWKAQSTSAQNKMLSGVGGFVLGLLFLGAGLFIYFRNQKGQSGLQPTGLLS


Key:
HLA-DR1 molecules [1] = target: T2, HLA-DR1 molecules (Homo sapiens, UniProt P01903+P01911, A100R/D57E/F55L/F60I/F76Y/I96L/L162R/M171V/P40L/Q125E/R42F/V115G/Y59C); experiment: binding of biotin-labeled hMBP(90-102) to "empty" HLA-DR1 (assay IV); settings: Table 39; AE101 series compound 64 μM; biotin-labeled hMBP(90-102) 50 μM, 37° C., 1 h; no enhancement = 1
T2 construct: The HLA-DR alpha gene was truncated after Asn^192 to remove transmembranal and cytoplasmic regions from the protein product; A gene coding for the HLA-DR1 beta chain was truncated after position Lys^198, again to delete the transmembranal region; made in house; host or cells: insect cell line printed as HS / H5 (Invitrogen), co-infected with two baculoviruses; concentrated culture supernatant captured on 12CA5 antibody

HLA-DR1 molecules [2] = experiment: exchange of biotinylated hMBP(90-102) into antigenic peptide-loaded HLA-DR1 (assay III); type: binding, human; settings: Table 38; HLA-DR1 preloaded with unlabeled hMBP(90-102) 50 μM; exchange with biotin-labeled hMBP(90-102) 50 μM, 37° C., 1 h; fraction of positive control o.d.; no enhancement = 0.08
HLA-DR1 molecules [3] = experiment: release of biotin-labeled hMBP(90-102) from HLA-DR1 without unlabeled antigenic peptide (assay I); type: binding, human; settings: for Relative Release: Table 36, fraction of o.d. of positive control (PBS only = 1.0; negative control = 0.0)
HLA-DR1 molecules [4] = experiment: release of biotin-labeled hMBP(90-102) from HLA-DR1 in the presence of unlabeled hMBP (assay II); type: binding, human
[5] = test system: murine E^k MHC class II allele; experiment: simultaneous assay, E^k allele (CH27 APC, TPc9.1 T hybridoma, THMCC82-103 or PGCC81-104); type: cell-based; settings: Table 1, 0.075 μM THMCC82-103, supernatant 1:2
Experimental: (§1) Examples 1-4 (Tables 1-18) will be briefly considered in order to establish the concept of tolerance discussed above. These examples describe experimental results observed in the so-called “simultaneous” assay. In the simultaneous assay four principle components are cultured together for a 24 hour period. The components of this culture, which are added simultaneously, are: (a) an antigenic peptide characterized by the ability to bind specifically into the antigenic peptide binding groove of an MHC class II molecule, (b) mitomycin C-treated, MHC class II-positive antigen presenting cells (APC) bearing the MHC class II allele required for binding of the specific antigenic peptide, and presentation of the specific antigenic peptide to the antigenic peptide-specific T cell hybridoma, (c) an effector compound of the present invention, and (d) an MHC class II allele-restricted T cell hybridoma specific for the antigenic peptide and the MHC class II allele restricting its presentation. Following incubation of this primary culture, an aliquot of its supernatant is transferred into a second culture well for incubation with an interleukin-dependent lymphoblastoid cell line. The degree of stimulation of that second, indicator cell by the interleukins which had been released from the activated T cell hybridoma in the primary culture is measured by quantitating tritiated thymidine deoxyribose {[^3H]TdR} uptake into the DNA of the HT-2 indicator cells of that second culture.
(§2) In the “simultaneous assay” the four components of the assay are cultured together for a 24 h period. The components of this primary culture, added at the same time or simultaneously, are: (a) the antigenic peptide, (b) mitomycin C-treated, MHC class II-positive antigen presenting cells (APC) with the MHC class II allele required for binding of the specific antigenic peptide and its presentation to the antigenic peptide-specific T cell hybridoma, (c) an AE101 series effector peptide, and (d) MHC class II allele-restricted T cell hybridoma specific for the antigenic peptide and the MHC class II allele restricting its presentation. At the end of the incubation of this primary culture, an aliquot of its supernatant is transferred into a second culture well for incubation with an interleukin-dependent lymphoblastoid cell line. The degree of stimulation of that second, indicator cell by the interleukins which had been released from the activated T cell hybridoma in the primary culture is measured by quantitating tritiated thymidine deoxyribose {[^3H]TdR} uptake into the DNA of the HT-2 indicator cells of that second culture.
(§3) For these various assays, the following antigenic peptides were used: HEL11-25, hen egg lysozyme 11-25, AMKRHGLDNYRGYSL(A^d) (SEQ ID NO:5); HEL46-61, hen egg lysozyme 46-61, NTDGSTDYGILQINSR(Ak) (SEQ ID NO:6); HEL106-116, hen egg lysozyme 106-116, NAWVAWRNRCK (E^d) (SEQ ID NO:7); PGCC81-104, pigeon cytochrome c 81-104, […] (Ek) (SEQ ID NO:8), and THMCC82-103, tobacco hornworm moth cytochrome c 82-103, […] (Ek) (SEQ ID NO:9). AE101 series peptides were obtained from commercial sources. In general, the purity and composition of each peptide was confirmed by HPLC separation and mass spectrometry. The native protein antigens were HEL, hen egg lysozyme, and PGCC, pigeon cytochrome C. They were obtained from commercial sources.
(§4) For the experiments of these Examples, several T cell hybridomas, which are specific for certain antigenic peptides, were used. The TPc9.1 T hybridoma is specific for pigeon cytochrome C 81-104 peptide presented on the murine class II MHC allele E^k. The TPc9.1 hybridoma responds heteroclitically to tobacco hornworm moth cytochrome c 82-103 on E^k. The 3A9 T hybridoma is specific for hen egg lysozyme 46-61 on A^k. The 9.30.B2 hybridoma is specific for hen egg lysozyme 11-25 on A^d, and the G28.C9 hybridoma is specific for hen egg lysozyme 106-116 on E^d. […]

[6] = target: T1, murine E^d MHC class II allele; experiment: simultaneous assay, E^d allele (A20 APC, G28.C9 T hybridoma, HEL106-116; HT-2 [3H]TdR readout); type: cell-based; design: The A20 and CH27 B cell lymphoma lines express H-2^d and H-2^k alleles, respectively; endogenous in cells; host or cells: A20 B cell lymphoma (mitomycin C-treated or paraformaldehyde-fixed); settings: Table 1, 0.4 μM HEL106-116, supernatant 1:4
Experimental: as §1, §2, §3, §4

[7] = target: soluble HLA-DR1 (HLA-DR alpha truncated after Asn192 with a C-terminal nine amino acid HA epitope tail; HLA-DR1 beta truncated after Lys198), made in Baculovirus-infected insect cells (human); experiment: loading ELISA: empty tethered HLA-DR1 with biotin-hMBP(90-102) 50 uM and AE peptide 64 uM, 1 h 37 C; biotin bound read by avidin-HRP
[8] = target: soluble HLA-DR1 (HLA-DR alpha truncated after Asn192 with a C-terminal nine amino acid HA epitope tail; HLA-DR1 beta truncated after Lys198), made in Baculovirus-infected insect cells (human); experiment: exchange ELISA: tethered HLA-DR1 preloaded with unlabeled hMBP(90-102) 50 uM, washed; AE peptide plus biotin-hMBP(90-102) 50 uM, 1 h 37 C; biotin bound as fraction of positive control (overnight loading)
[9] = target: soluble HLA-DR1 (HLA-DR alpha truncated after Asn192 with a C-terminal nine amino acid HA epitope tail; HLA-DR1 beta truncated after Lys198), made in Baculovirus-infected insect cells (human); experiment: release ELISA: soluble HLA-DR1 tethered by 12CA5 and preloaded with biotin-hMBP(90-102); AE peptide 64 uM, 1 h 37 C, no unlabeled peptide; biotin still bound read by avidin-HRP (1.0 = PBS control, 0.0 = no DR1; low value = released)
[10] = AE peptide 16 μM (second value)

| Molecule | Relative Release (HLA-DR1 molecules [3]; AE101 series compound 64 μM) | Relative Enhancement (of biotin-hMBP(90-102) binding to empty HLA-DR1) (relative to no AE peptide = 1) [7] | Relative Binding (of biotin-hMBP(90-102) to HLA-DR1) (fraction of positive control o.d.) [8] | Relative Release (fraction of positive control o.d.) [9] | further results |
| --- | --- | --- | --- | --- | --- |
| AE402 (LRMKLPKPPKPV) | 0.65 |  |  |  | Relative Enhancement (HLA-DR1 molecules [1]): 0.33; Relative Binding (HLA-DR1 molecules [2]): −0.03 |
| AE100 (YRMKLPKPPKPVSKMR) | 0.37 |  |  |  | Relative Enhancement (HLA-DR1 molecules [1]): 3.44; Relative Binding (HLA-DR1 molecules [2]): 0.31 |
| AE403 (MKLPKPPKPV) | 0.64 |  |  |  | Relative Enhancement (HLA-DR1 molecules [1]): 0.47; Relative Binding (HLA-DR1 molecules [2]): 0.40 |
| YRMKLPKSAK [AE108] | 1.14 |  |  |  | Relative Release, With unlabeled hMBP(90-102), 1 μM (HLA-DR1 molecules [4]; Table 37, AE101 series compound 1 μM, unlabeled hMBP(90-102) 250 μM): 0.00; Relative Release, With unlabeled hMBP(90-102), 64 μM (HLA-DR1 molecules [4]; Table 37, AE101 series compound 64 μM, unlabeled hMBP(90-102) 250 μM): 0.14; Times Baseline Response, E^k [5, 10]: 0.9; Times Baseline Response, E^k ([5]; AE peptide 64 μM (first value)): 1.2; Times Baseline Response, E^d [6, 10]: 11.6; Times Baseline Response, E^d ([6]; AE peptide 64 μM (first value)): 32.0; Relative Release, Without unlabeled hMBP(90-102), 1 μM (HLA-DR1 molecules [3]; Table 37, AE101 series compound 1 μM, no unlabeled hMBP(90-102)): 0.52; Relative Release, Without unlabeled hMBP(90-102), 64 μM (HLA-DR1 molecules [3]; Table 37, AE101 series compound 64 μM, no unlabeled hMBP(90-102)): 0.31 |
| unlabeled hMBP(90-102): human myelin basic protein (hMBP) peptide (90-102), antigenic peptide binding HLA-DR1, unlabeled (HLIRLFSRDAPGR) [reference compound] |  |  |  |  | release of biotin-labeled hMBP(90-102) (Relative Release) (HLA-DR1 molecules [4]; unlabeled hMBP(90-102) (250 μM) alone without AE101 series compounds): 0.81 |
| AE405: comprising residue positions 5 through 12 of AE101 (LPKSAKPV) | 0.11 |  |  |  | Relative Enhancement (HLA-DR1 molecules [1]): 0.43; Relative Binding (HLA-DR1 molecules [2]): 0.57; release of biotin-labeled hMBP(90-102) from HLA-DR1 without second unlabeled antigenic peptide, in words (HLA-DR1 molecules [3]; Table 36 (compounds tested at 64 μM)): sufficient to release antigenic peptide |
| Ac-MKLPKPPKPV-NH2 [AE403] |  | 0.47 | 0.4 | 0.64 |  |
| KLPKSAKPVSQMR [AE103] |  |  |  | 0.01 |  |
| Ac-LRMKLPKPPKPV-NH2 [AE402] |  | 0.33 | -0.03 | 0.65 |  |
| Ac-LRMKLPKPP-NH2 [AE401] |  | 4.29 | 0.45 | 0.16 |  |
| Ac-LPKSAKPV-NH2 [AE405] |  | 0.43 | 0.57 | 0.11 |  |
| SAKPVSQMR [AE105] |  |  |  |  | Fraction of biotin-hMBP still bound (fraction of positive control o.d.) [9]: 0.16 |
| PKSAKPVSQMR [AE104] |  |  |  | 0.02 |  |
| YRMKLPKSAKPV [AE107] |  | 2.59 | 1.04 | -0.07 |  |
| YRMKLPKPPKPVSKMR [AE100] |  | 3.44 | 0.31 | 0.37 |  |

Source: US6835382B2, “Ii peptide therapeutics to enhance antigen presentation” (University of Massachusetts, priority 1996, dated 2004)
